In US20190328837A1 (Stanford University, published 2019):

Assays:
wild-type CNTFR-Fc [1] = molecular target: T1, wild-type CNTFR-Fc (human, UniProt P26992 23-342); experiment: cell-free ELISA, HIS-tagged soluble CLCF1 titrated against 2 nM CNTFR-Fc, anti-HIS capture, HRP anti-mouse detection
T1 construct: also called wtCNTFR-Fc; not shown: Fc domain; captured with anti-mouse Fc antibody
T1 sequence: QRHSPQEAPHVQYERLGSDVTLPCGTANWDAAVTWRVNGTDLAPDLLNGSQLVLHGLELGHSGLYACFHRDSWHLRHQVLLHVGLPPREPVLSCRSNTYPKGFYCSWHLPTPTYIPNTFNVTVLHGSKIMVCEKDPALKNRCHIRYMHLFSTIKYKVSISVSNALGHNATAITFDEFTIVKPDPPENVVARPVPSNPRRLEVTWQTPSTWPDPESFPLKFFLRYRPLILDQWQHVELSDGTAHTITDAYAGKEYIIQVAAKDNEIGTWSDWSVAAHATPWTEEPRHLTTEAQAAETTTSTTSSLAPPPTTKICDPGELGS
Procedure: (§1) 96-well plates were coated with 10 μg/mL of anti-HIS antibody overnight and blocked with 5% milk for 1 h. The plates were then washed twice with BPBS. Different concentrations of soluble constructs of HIS-tagged CLCF1 variants were incubated with 2 nM CNTFR-Fc in BPBS for 12 h at room temperature. The mixture was then added to 96-well plates coated with anti-HIS antibody for 1 h followed by washing with BPBS twice. Subsequently, the wells were incubated with 1:1000 diluted HRP conjugated anti-mouse antibody for 1 h at room temperature then washed four times with PBS. 1-Step Ultra TMB ELISA (Thermo Fisher Scientific) was used for the readout detected using a plate reader (Tecan).

wild-type CNTFR-Fc [2] = molecular target: T1, wild-type CNTFR-Fc; experiment: sandwich ELISA, soluble CLCF1 titrated against 2 nM CNTFR-Fc, apparent Kd
Procedure: (§2) The CLCF1 variants isolated from screening were cloned into the pET28b bacterial expression plasmid and expressed and purified. […] A sandwich ELISA was performed using an anti-mouse Fc antibody as a capturing agent for wtCNTFR-Fc, followed by an anti-CLCF1 antibody as a detection agent for the bound complex. […] ELISA was also used to measure binding interactions with the gp130 and LIFR beta receptors.
(§3) To measure the solution-phase binding interaction between the CLCF1 constructs and CNTFR, different concentrations of soluble, recombinant CLCF1 variants and wtCLCF1 were incubated with 2 nM CNTFR-Fc in BPBS for 12 h at room temperature. The mixture was then added to 96-well plates coated with anti-mouse-Fc antibody for 1 h followed by washing with BPBS twice. Subsequently, the wells were incubated with 1:1000 diluted anti-CLCF1 rabbit antibody for 2 h at room temperature then washed four times with BPBS. The wells were incubated with a 1:1000 diluted HRP conjugated anti-rabbit antibody for 2 h at room temperature, and washed four times with BPBS. 1-Step Ultra TMB ELISA was used for the readout, which was measured using a plate reader (Tecan).

wild-type CNTFR-Fc [3] = molecular target: T1, wild-type CNTFR-Fc; experiment: sandwich ELISA: soluble CLCF1 incubated with CNTFR-Fc, captured by anti-mouse Fc, detected by anti-CLCF1; sandwich ELISA, anti-mouse Fc capture, anti-CLCF1 detection
Procedure: as §2, §3

wild-type CNTFR-Fc [4] = molecular target: T1, wild-type CNTFR-Fc; experiment: cell-free ELISA: HIS-tagged CLCF1 constructs with 2 nM CNTFR-Fc, captured by anti-HIS, detected by anti-mouse HRP; FRR-CLCF1 parent, no added mutation
Procedure: as §1

wild-type CNTFR-Fc [5] = molecular target: T1, wild-type CNTFR-Fc; experiment: sandwich ELISA, soluble CLCF1 titrated against 2 nM CNTFR-Fc, anti-mouse-Fc capture, anti-CLCF1 detection
Procedure: as §2, §3

EC50 (read off the curve) (wild-type CNTFR-Fc [1]): ~1 nM | Kd (wild-type CNTFR-Fc [2]): 0.86 nM | Kd (wild-type CNTFR-Fc [3]): ~0.83 nM | Kd (wild-type CNTFR-Fc [4]): 0.869 nM | EC50 (read off the curve) (wild-type CNTFR-Fc [5]): ~1 nM
B1: recombinant soluble FRR-CLCF1 (L86F, Q96R, H148R) (ligand)
chain: LNRTGDPGPGPSIQKTYDLTRYLEHQLRSLAGTYLNYLGPPFNEPDFNPPRLGAETLPRATVDLEVWRSLNDKLRLTQNYEAYSHFLCYLRGLNRRAATAELRRSLAHFCTSLQGLLGSIAGVMAALGYPLPQPLPGTEPTWTPGPARSDFLQKMDDFWLLKELQTWLWRSAKDFNRLKKKMQPPAAAVTLHLGAHGF
notes: Expressed in E. coli from pET28b
